Residue numbers refer to the chain shown, from its start.

This is an account of results in patent publication US20260209386A1 (MYTHIC THERAPEUTICS, published 2026).

Sequences and labels used below:
T1: Human PTK7 (human, UniProt Q13308 31-1070)
T1 sequence: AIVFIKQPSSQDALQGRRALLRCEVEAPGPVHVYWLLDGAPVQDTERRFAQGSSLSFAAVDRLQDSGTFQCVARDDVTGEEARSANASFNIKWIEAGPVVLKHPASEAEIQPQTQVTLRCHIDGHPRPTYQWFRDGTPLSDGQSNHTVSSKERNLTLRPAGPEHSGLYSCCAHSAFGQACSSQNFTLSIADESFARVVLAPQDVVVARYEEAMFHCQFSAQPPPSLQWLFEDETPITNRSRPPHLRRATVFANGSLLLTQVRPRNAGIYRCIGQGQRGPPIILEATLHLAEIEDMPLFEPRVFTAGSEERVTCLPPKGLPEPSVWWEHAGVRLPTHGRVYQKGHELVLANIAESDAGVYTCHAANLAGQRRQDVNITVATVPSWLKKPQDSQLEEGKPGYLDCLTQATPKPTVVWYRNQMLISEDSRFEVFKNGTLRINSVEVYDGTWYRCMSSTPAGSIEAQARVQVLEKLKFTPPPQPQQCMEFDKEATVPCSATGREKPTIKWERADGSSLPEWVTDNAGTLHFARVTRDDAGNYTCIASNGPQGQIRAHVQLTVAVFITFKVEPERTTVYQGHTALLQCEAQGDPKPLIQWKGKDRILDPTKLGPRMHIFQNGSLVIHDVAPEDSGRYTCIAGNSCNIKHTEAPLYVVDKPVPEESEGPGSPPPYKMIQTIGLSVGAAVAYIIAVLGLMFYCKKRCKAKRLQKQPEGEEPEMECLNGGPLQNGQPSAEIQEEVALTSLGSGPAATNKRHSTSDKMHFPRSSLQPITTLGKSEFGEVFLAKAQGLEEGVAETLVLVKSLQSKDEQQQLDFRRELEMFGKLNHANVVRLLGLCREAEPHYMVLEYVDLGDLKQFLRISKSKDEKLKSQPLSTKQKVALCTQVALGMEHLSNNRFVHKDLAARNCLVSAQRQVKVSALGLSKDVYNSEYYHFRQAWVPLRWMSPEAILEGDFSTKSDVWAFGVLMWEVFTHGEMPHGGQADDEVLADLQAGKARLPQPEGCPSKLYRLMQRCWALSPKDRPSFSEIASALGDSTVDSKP

B1: MYT11257 (antibody, V domains shown)
VH: EVQLVESGGGLVQPGGSLRLSCTASGIDHSRYSMGWVRQAPGKGLEWVGIISYGGSTYYASWAKGRFTISRDTSKNTVYLQMNSLRAEDTAVYFCARVGYPGYSGYGYAFDAFDPWGQGTLVTVSS
VL: EIVMTQSPSTLSASVGDRVIITCQSSKSVYNDNWLSWYQQKPGKAPKLLIYGASTLASGVPSRFSGSGSGAEFTLTISSLQPDDFATYYCAGGYSSSSDNGFGQGTKLTVL
B2: MYT11259 (antibody, V domains shown)
VH: B1 VH with H29L, R31H
VL: B1 VL
B3: MYT11280 (antibody, V domains shown)
VH: B1 VH with H29L, A96H
VL: B1 VL
B4: MYT11282 (antibody, V domains shown)
VH: B1 VH with H29L, V98H
VL: B1 VL
B5: MYT11284 (antibody, V domains shown)
VH: B1 VH with H29L, Y100H
VL: B1 VL
B6: MYT11271 (antibody, V domains shown)
VH: B1 VH with H29L, T57H
VL: B1 VL
B7: MYT11264 (antibody, V domains shown)
VH: B1 VH with H29L, I50H
VL: B1 VL
B8: MYT11281 (antibody, V domains shown)
VH: B1 VH with H29L, R97H
VL: B1 VL
B9: MYT11261 (antibody, V domains shown)
VH: B1 VH with H29L, S33H
VL: B1 VL
B10: MYT11058 (antibody, V domains shown)
VH: EVQLVESGGGLVQPGGSLRLSCTASGLSLSSYWMSWVRQAPGKGLEWVGVISAGGNTYYANWAKGRFTISRDTSKNTVYLQMNSLRAEDTAVYFCARGDDHYTNAAYVSNLWGQGTLVTVSS
VL: EIVMTQSPSTLSASVGDRVIITCQASQSISSWLSWYQQKPGKAPKLLIYKASTLASGVPSRFSGSGSGAEFTLTISSLQPDDFATYYCQSYFDSTTIAFGQGTKLTVL
B11: MYT11059 (antibody, V domains shown)
VH: B10 VH with H101G, Y102H
VL: B10 VL
B12: MYT11068 (antibody, V domains shown)
VH: B10 VH with H101G, L111H
VL: B10 VL
B13: MYT11100 (antibody, V domains shown)
VH: B10 VH with H101G
VL: B10 VL with T106E, V107I, L108K
B14: MYT11063 (antibody, V domains shown)
VH: B10 VH with H101G, A106H
VL: B10 VL
B15: MYT11081 (antibody, V domains shown)
VH: B10 VH with H101G
VL: B10 VL with L33H
B16: MYT11096 (antibody, V domains shown)
VH: B10 VH with H101G
VL: B10 VL with T95H
B17: MYT11084 (antibody, V domains shown)
VH: B10 VH with H101G
VL: B10 VL with A51H
B18: MYT11069 (antibody, V domains shown)
VH: B10 VH with F94Y, H101G
VL: B10 VL
B19: MYT11079 (antibody, V domains shown)
VH: B10 VH with H101G
VL: B10 VL with S31H
B20: MYT11078 (antibody, V domains shown)
VH: B10 VH with H101G
VL: B10 VL with S30H
B21: MYT11142 (antibody, V domains shown)
VH: EVQLVESGGGLVQPGGSLRLSCTASGFSLSTYAMSWVRQAPGKGLEWVGMIYINDNTYYASWAKGRFTISRDTSKNTVYLQMNSLRAEDTAVYYCARDIGISYYIGVSLWGQGTLVTVSS
VL: EIVMTQSPSTLSASVGDRVIITCQASQSIGTRLSWYQQKPGKAPKLLIYGASKLATGVPSRFSGSGSGAEFTLTISSLQPDDFATYYCLGEYSYTTTDGIAFGQGTKLTVL
B22: MYT11143 (antibody, V domains shown)
VH: B21 VH with D55A, Y94F
VL: B21 VL
B23: MYT11190 (antibody, V domains shown)
VH: EVQLVESGGGLVQPGGSLRLSCTASGIDLSSYVMGWVRQAPGKGLEWVGHIYGGGGTYYATWARGRFTISRDTSKNTVYLQMNSLRAEDTAVYFCARAAADFYFNLWGQGTLVTVSS
VL: EIVMTQSPSTLSASVGDRVIITCQASQSISSYLAWYQQKPGKAPKLLIYDISDLASGVPSRFSGSGSGAEFTLTISSLQPDDFATYYCQSYYWISNSGAAFGQGTKLTVL
B24: MYT11212 (antibody, V domains shown)
VH: B23 VH with H50Y, F102H
VL: B23 VL
B25: MYT11232 (antibody, V domains shown)
VH: B23 VH with H50Y
VL: B23 VL with I51H
B26: MYT11211 (antibody, V domains shown)
VH: B23 VH with H50Y, D101H
VL: B23 VL

The test has as its target T1, Human PTK7. Kind of test: cell-based or functional assay.
With B1, the “Internalization, FOW @ 25 nM (fold over the wildtype, parental antibody)” value was 1.11 fold over parental antibody.
Take B2: the “Internalization, FOW @ 25 nM (fold over the wildtype, parental antibody)” value was 1.14 fold over parental antibody.
With B3, the “Internalization, FOW @ 25 nM (fold over the wildtype, parental antibody)” value is 1.16 fold over parental antibody.
The figure for B4 is 1.68 fold over parental antibody; for B5 it is 1.51 fold over parental antibody; for B6 it is 1.57 fold over parental antibody.
The figure for B7 is 1.13 fold over parental antibody.
B8: the “Internalization, FOW @ 25 nM (fold over the wildtype, parental antibody)” value is 1.11 fold over parental antibody.
In the case of B9, the “Internalization, FOW @ 25 nM (fold over the wildtype, parental antibody)” value was 1.24 fold over parental antibody.
On to B10, for which the “Internalization, FOW @ 25 nM (fold over the wildtype, parental antibody)” value is 1.26 fold over parental antibody.
The figure for B11 is 1.27 fold over parental antibody.
Regarding B12, the “Internalization, FOW @ 25 nM (fold over the wildtype, parental antibody)” value is 1.22 fold over parental antibody.
Regarding B13, the “Internalization, FOW @ 25 nM (fold over the wildtype, parental antibody)” value was 1.17 fold over parental antibody.
As for B14, the “Internalization, FOW @ 25 nM (fold over the wildtype, parental antibody)” value was 2.04 fold over parental antibody.
Turning to B15, the “Internalization, FOW @ 25 nM (fold over the wildtype, parental antibody)” value was 1.22 fold over parental antibody.
As for B16, the “Internalization, FOW @ 25 nM (fold over the wildtype, parental antibody)” value was 1.43 fold over parental antibody.
In the case of B17, the “Internalization, FOW @ 25 nM (fold over the wildtype, parental antibody)” value is 1.14 fold over parental antibody.
Regarding B18, the “Internalization, FOW @ 25 nM (fold over the wildtype, parental antibody)” value is 1.22 fold over parental antibody.
On to B19, for which the “Internalization, FOW @ 25 nM (fold over the wildtype, parental antibody)” value was 1.2 fold over parental antibody.
As for B20, the “Internalization, FOW @ 25 nM (fold over the wildtype, parental antibody)” value is 1.24 fold over parental antibody.
B21: the “Internalization, FOW @ 25 nM (fold over the wildtype, parental antibody)” value was 1.29 fold over parental antibody.
The figure for B22 is 1.61 fold over parental antibody; for B23 it is 1.32 fold over parental antibody.
Consider B24, for which the “Internalization, FOW @ 25 nM (fold over the wildtype, parental antibody)” value is 1.23 fold over parental antibody.
For B25, the “Internalization, FOW @ 25 nM (fold over the wildtype, parental antibody)” value was 1.15 fold over parental antibody.
Turning to B26, the “Internalization, FOW @ 25 nM (fold over the wildtype, parental antibody)” value was 1.14 fold over parental antibody.
